Results from patent publication US6017743A, “Siaα 2,3, Galβ 1, 4Glc NAcα 2,8-sialyltransferase” (The Institute of Physical and Chemical Research, priority 1995, dated 2000).

Experiments:
fetuin [1] = target: fetuin
[2] = target: asialo-α1-acid glycoprotein
[3] = target: bovine submaxillary mucin (bovine)
[4] = target: transferrin (bovine) (bovine) (UniProt Q29443)
fetuin [5] = target: fetuin; remark: listed apart in the source
[6] = target: T1, mouse Siaα 2,3Galβ 1,4GlcNAc α 2,8-sialyltransferase O3 (ST8Sia III), protein A-fused soluble enzyme, SEQ. ID. No.3 (active domain of SEQ. ID. No.1) (Mus musculus, UniProt Q64689); test: Kinetic properties of the sialyltransferase of the present invention (sialyltransfer from CMP-[14C]NeuAc to glycolipid acceptors, HPTLC/radio image analysis); assay type: biochemical; settings: acceptor substrate, Table 2
T1 construct: ID; No.3 and 4, respectively; IgM signal peptide (N); made in house; host or cells: COS-7 cells (transient transfection with pcDSA-O3; secreted into the medium, adsorbed to IgG-Sepharose)
T1 sequence (Q64689 42-380): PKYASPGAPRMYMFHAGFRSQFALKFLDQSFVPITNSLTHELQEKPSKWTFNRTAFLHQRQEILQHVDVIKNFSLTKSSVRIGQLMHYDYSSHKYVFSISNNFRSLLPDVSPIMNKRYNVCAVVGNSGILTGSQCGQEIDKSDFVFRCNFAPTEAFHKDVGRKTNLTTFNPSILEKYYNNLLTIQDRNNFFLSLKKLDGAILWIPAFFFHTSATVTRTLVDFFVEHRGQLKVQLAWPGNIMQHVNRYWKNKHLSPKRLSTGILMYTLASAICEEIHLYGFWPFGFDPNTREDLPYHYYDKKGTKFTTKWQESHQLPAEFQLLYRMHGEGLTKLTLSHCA
Description: To facilitate functional analysis of the sialyltransferase of the present invention, expression plasmid pcDSA-O3 was constructed and transfected into COS-7 cells, and the protein A fused-protein containing an active domein of the sialyltransferase of the present invention (i.e. a soluble enzyme; hereinafter referred to as the fused protein of the present invention) was adsorbed to IgG-Sepharose in the medium and used as the enzyme source. The amino acid sequence of the fused protein and the gene encoding the fused protein are shown as SEQ. ID. No.3 and 4, respectively.
A truncated form of the sialyltransferase of the present invention (ST8Sia-III), lacking the first 39 amino acids of the open reading frame, was prepared by PCR amplification with 5'- and 3'-primers containing a XhoI site, respectively (5'-CATCTTCTCGAGTCCC AAGTACGCCAGCCCG-3' and 5'-[…]-3'). […]
The single insertion in the correct orientation was finally analyzed by restriction enzyme treatment and DNA sequencing. […]
For glycolipid acceptors, the incubation mixtures were applied on a C-18 column (Sep-Pak Vac, 100 mg; Waters, Milford, Mass., U.S.A.) which was washed with water. […] The radioactive materials in glycoproteins or glycolipids were visualized with a BAS2000 radio image analyzer (Fuji Film, Japan), and the radioactivity incorporated into acceptor glycoproteins was counted.

Row | sialyltransferase activity toward the acceptor (pmol/ml medium, h) (pmol/ml medium, h) (asialofetuin) | sialyltransferase activity toward the acceptor (pmol/ml medium, h) (pmol/ml medium, h) (α1-acid glycoprotein) | sialyltransferase activity toward the acceptor (pmol/ml medium, h) (pmol/ml medium, h) (fetuin [1]) | sialyltransferase activity toward the acceptor (pmol/ml medium, h) (pmol/ml medium, h) [2] | sialyltransferase activity toward the acceptor (pmol/ml medium, h) (pmol/ml medium, h) [3] | sialyltransferase activity toward the acceptor (pmol/ml medium, h) (pmol/ml medium, h) [4] | sialyltransferase activity toward the acceptor (pmol/ml medium, h) (pmol/ml medium, h) (ovomucoid) | Km (fetuin [5]) [µM] | Km ([6]; 0.1 M sodium cacodylate pH 6.0, 37° C., CMP-[14C]NeuAc donor) [µM] | Vmax [6] | Substance
1 | < 0.1 | 7.8 | 92.1 | < 0.1 | < 0.1 | 1.3 | 1.7 | 20 | – | – | protein A-fused soluble enzyme containing an active domain of Siaα2,3Galβ1,4GlcNAc α2,8-sialyltransferase O3 (mouse ST8Sia-III)
2 | < 0.01 | < 0.01 | < 0.01 | < 0.01 | < 0.01 | < 0.01 | < 0.01 | – | – | – | human ST8Sia I (GD3 synthase) expressed by Namalwa cells (from UniProt Q92185) (enzyme)
3 | – | – | – | – | – | – | – | – | 82 | 9.2 pmol/h,ml | Siaα 2,3Galβ 1,4GlcNAc β 1,4Galβ 1,4Glcβ1,1Cer [2,3-SPG]
4 | < 0.1 | 7.6 | 8 | < 0.1 | < 0.1 | 0.38 | 1.3 | – | – | – | mouse ST8Sia II (STX) (from UniProt O35696) (enzyme)
